Reference: paper PMC7044329

Target: transcriptional activation domain of ATF6α
Test: affinity purification with mass spectrometry; Mediator enriched from wild-type and MED26 hypomorphic HEK293T cells by binding to the ATF6α transcriptional activation domain (glutathione affinity); semi-quantitative MudPIT

level in Mediator relative to wild-type MED26: 30 to 50%
Substance: mutant MED26 that lacks the NTD (from UniProt O95402 1-600) (natural protein)
